Laboratory results taken from the supplement of paper PMC9170038.

Tested on: MS2 coat protein
Test: apparent KD of MS2 coat protein; designed switch direction (-1 OFF switch, 1 ON switch): -1; higher = weaker reporter binding
Procedure, shortened: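 Three titration conditions were used: no input, 200 uM small-molecule ligand, and an oligonucleotide input. In each, SNAP-549-labelled MS2 coat protein was raised from 0.7 or 1.5 nM, doubling, to 3 µM over designed RNA switches transcribed on Illumina chips by stalled E. coli RNA polymerase. Curve fits of normalised cluster fluorescence gave values whose per-design median over clusters is the apparent KD.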

[1] = Eterna round: R95, input ligand: FMN 200 uM
[2] = Eterna round: R95, input ligand: microRNA oligo, concentration not stated
[3] = Eterna round: R95, input ligand: none
[4] = input ligand: microRNA oligo, concentration not stated

Sequence | apparent KD of MS2 coat protein [1] | apparent KD of MS2 coat protein [2] | apparent KD of MS2 coat protein [3] | apparent KD of MS2 coat protein (input ligand: FMN 200 uM) | apparent KD of MS2 coat protein [4] | apparent KD of MS2 coat protein (input ligand: none)
AGUACUAACACGAUAGUGUUAGUACAAUAAGCUUGUGUUACAUGAGGAUCACCCAUGUCCUCAUAAGCUCGUCUUAA [Mat - Sensor v3 - Turn-off var 2 - D59] (puzzle: Sensor v3, turn-off variant 2) | 44.3 nM | 594 nM | 35.3 nM | – | – | –
AGCUGUGGCCGAGGAUAUGACAUGAGGAUCACCCAUGUACACGAUUAGGCCUGGUAACAGGCUCAUCAGAAGGCGGUCUCAGCA [Eli eng2 - 017] (Eterna round: R96, puzzle: Exclusion NG 2) | – | – | – | 9.77 nM | 10.4 nM | 13 nM
CUAAUGUAUCAGGAUAUGAUUAUAUGUGUUGGAUCAGAAGGGAUAACAUGAGGAUCACCCAUGUUGUGGAGUGA [JR_Ex6_Sub036] (Eterna round: R97, puzzle: Exclusion 6) | – | – | – | 202 nM | – | 234 nM
UAUUAGCAAGUAAGAUCCCACAUGAGGAUCACCCAUGUGCUCGUCUUAUAAGGUACUGUGACGAAAGUCACGGUACC [Sensor 3, v1 - 88] (puzzle: Sensor v3, turn-off variant 1) | 12.6 nM | 1040 nM | 16.5 nM | – | – | –
CGAAGUAGAAACCGAUCCUACAUGAGGAUCACCCAUGUAGCAAGACGUGCACGCGAAGCUCGUCAGACUACCAGAAG [salish99_TOv1_r3_004] (puzzle: Sensor v3, turn-off variant 1) | 343 nM | 352 nM | 332 nM | – | – | –
UUUUAUAGAGGAUAUGCGUGAAUAUAUAUUCAUGGAAAUUUACAUGAGGAUCACCCAUGUAGAAGGCUGUGUUU [LRO-Excl2-19-mod 090 by JR] (Eterna round: R97, puzzle: Exclusion 2) | – | – | – | 14.1 nM | – | 14.5 nM
AAUUCACAUGAGGAUCACCCAUGUCAGGAUAUGGUUUCACUUUUUUCUUUUCUUGAUUCCAGAAGGGACAGCUA (puzzle: Exclusion 1) | – | 62.6 nM | – | – | – | –
GCGCAGUCAGGAUAUGCCGGAUAGGAUCACCCUGUCCAAAGGCAGAAGGGACAUGAGGAUCACCCAUGUGGCGC [e4e Mirror Pins] (puzzle: Exclusion 4) | 22.2 nM | 17.7 nM | 16.8 nM | – | – | –
UCGAUGUGAGGAUAUAUAUGCAGUAGUCCUUGUGUUUUAUAACUUGAGGAUCACCCAAGUAGAAGGCGCGACGU [JR_Ex2_Sub059] (Eterna round: R97, puzzle: Exclusion 2) | – | – | – | 37 nM | – | 33.5 nM
AGGUCACAUGAGGAUCACCCAUGUCAGGAUAUCUACAUUGAAGCCUCGGCUUCAAUGUAGAGAAGGGAUAAUUA [E1/8-B2] (Eterna round: R97, puzzle: Exclusion 1) | – | – | – | 63.7 nM | – | 44.7 nM
UGACGAGUAGGAUAUUGGACUUGCGACAUGAGGAUCACCCAUGUGACGUCAACGUGGCACCAAGAAGGGCUACGUC [Gelareusdi] (puzzle: Exclusion 5) | – | 47.7 nM | – | – | – | –
AAUAAUGAACGAGCUUUUUACAUGAGGAUCACCCAUGUCCUCUGCUCGUCUUGUCUUGGGCUUUUUUUGGGUUCGGG [-22.1, -44.7 kcal, A 17%] (Eterna round: R97, puzzle: Sensor, turn-off variant 1) | – | – | – | 331 nM | – | 338 nM
UUUAAUUUUUUUUUUUUACAAGCUUUUUGCUCGUCUUAUACAUGAGGAUCACCCAUGUGAAUGGGAAGUAAAUUAUC [JMF 51] (puzzle: Sensor v3, turn-off variant 2) | 103 nM | 183 nM | 148 nM | – | – | –
UCAUGUUAGCAGGAUAUGCUAUUUAUUUUUUAUGCAGAAGGGCUUACAUGAGGAUCACCCAUGUGUUAGGUUUU [JR_E6_Sub073] (Eterna round: R96, puzzle: Exclusion 6) | – | – | – | 34.8 nM | 41.5 nM | 70.6 nM
AUAAAGAACUCAGGAUAUUAGAGAAACGGACAUGAGGAUCACCCAUGUGCGCCUGAUGCCGAGAAUAAGAAGGGAGAAUAGAAA [Rearbi] (Eterna round: R96, puzzle: Exclusion NG 2) | – | – | – | 131 nM | 16.7 nM | 27.4 nM
AAUACAAGCUAUUGAUCCCACAUGAGGAUCACCCAUGUUCCUGGCCGUGAGACAAGGUUGACAAUAGCUCGUCUUAU [Sensor-V1 #45] (Eterna round: R97, puzzle: Sensor, turn-off variant 1) | – | – | – | 285 nM | – | 299 nM
ACUUCACAUGAGGAUCACCCAUGUGAGGAUAUCGUCGAGGAUGUAAUGCCAUCCGUGACGAGAAGGCGCAUGGU [Exclusion 1 (Mod 2.1 solution 40 by Eternabot)] (Eterna round: R97, puzzle: Exclusion 1) | – | – | – | 147 nM | – | 31.1 nM
GAUUAACAUGAGGAUCACCCAUGUGAGGAUAUACGAGAAUAGAUUUCGAUCAGAUAGAGUAGAAGGCACAGAUA [EX1 #1] (Eterna round: R97, puzzle: Exclusion 1) | – | – | – | 44.9 nM | – | 27 nM
UUUUAACAUGAGGAUCACCCAUGUGAGGAUAUCGAAAUUUAUAUUAAUAUUUUUAUUUCGAGAAGGCACAUUUU [JMF 73] (puzzle: Exclusion 1) | – | 138 nM | – | – | – | –
UCACGGGAUUGAGGAUAUAUAUAAAUUUAUACAAUAGAAGGCAAAUUUUUAGUUUUUUCACUUUACAUGAGGAUCACCCAUGUU [JR_ExcBG1_Sub083] (Eterna round: R96, puzzle: Exclusion NG 1) | – | – | – | – | 20.1 nM | –
AGUAACUAUCACGAAAGUGAUAGUUACACAAGCAGUGGAACAUGAGGAUCACCCAUGUCCUCAUUUGCUCGUCUUAU [Sensor 3 - 27] (puzzle: Sensor v3, turn-off variant 2) | 35.5 nM | 19.6 nM | 42.2 nM | – | – | –
ACAUGAGGAUCACCCAUGUCCGUCUGGUCUGUCUCGGCUGUCGAGGAUAUAGCCCGGUAUCCGCGCUAGAAGGCGGGAGUCGGC [Aenatbe mod 97] (Eterna round: R96, puzzle: Exclusion NG 3) | – | – | – | 23.1 nM | 24.5 nM | 29.6 nM
AAAUUGUCAGGAUAUUGUUAGUUUAGUUGUUUGUAUUAGUUCGAGAAGGGACAUGAGGAUCACCCAUGUGAAAA [Ex4 #69] (Eterna round: R97, puzzle: Exclusion 4) | – | – | – | 38.3 nM | – | 41.5 nM
AAUUAUUAUUGAGGAUAUCGUAUUGAAAUAAUAUGAGAAGGCGGGAUAAACAUGAGGAUCACCCAUGUGAGCCUGAUGCUUGUG [Ex NG1 #39] (Eterna round: R96, puzzle: Exclusion NG 1) | – | – | – | – | 13.3 nM | –
UAGAAGUUCAACGAGUGAGACAUGAGGAUCACCCAUGUGGUGGUAGGGAACAAGCUUUUUGCACGUACUUAUGAGGA [JR_SV3TOV1_Sub005] (puzzle: Sensor v3, turn-off variant 1) | 368 nM | 269 nM | 414 nM | – | – | –
CCAGUGUGAGGAUAUACAUGGAUAGUUUUAUAUAGUAUGUUACAUGAGGAUCACCCAUGUAGAAGGUAUAUCGG [15.1, 13.8 kcal, A 31%] (Eterna round: R97, puzzle: Exclusion 2) | – | – | – | 22.5 nM | – | 28.7 nM
